Results reported in patent US20250115677A1, “Anti-CEA Antibody Drug Conjugates and Methods of Use” (BeiGene Switzerland GmbH, priority 2022, published 2025).
Like-named read-outs stand apart in the source and are kept apart here.

Columns and labels:
MKN45 cells = assay: Payload sensitivity of MKN45 cells; type: cell-based, human
Procedure: At Day 0, cells were harvested with 0.25% trypsin-EDTA, plated at 5,000 cells/well in 96-well plates (655090, Greiner), and incubated at 37° C., 5% CO2 overnight. At Day 1, payload compounds were added (5× dilution) into plates. Cell and compound mixtures were incubated at 37° C., 5% CO2 for 6 days. Survival cell signaling was collected at Day 6 with 100 μL of detection reagent (G7573, Promega®); signal was read by Tecan Spark®. Data were analyzed by GraphPad Prism 9.0.0. All killing concentrations were duplicated or triplicated (Table 21 and FIG. 16). “SABC” refers to specific antibody binding capacity.

[1] = target: T1, chimeric construct (CHIM) (human); assay: SPR (BIAcore T-200); antibody captured on anti-human IgG chip, CHIM flowed (1.37-333 nM)
T1 construct: CEACAM6 AA 1-273 joined to the membrane-peripheral region containing domain B3 of CEA (AA 596-687), C-terminal 6xHis; also called chimeric CEA
T1 chain: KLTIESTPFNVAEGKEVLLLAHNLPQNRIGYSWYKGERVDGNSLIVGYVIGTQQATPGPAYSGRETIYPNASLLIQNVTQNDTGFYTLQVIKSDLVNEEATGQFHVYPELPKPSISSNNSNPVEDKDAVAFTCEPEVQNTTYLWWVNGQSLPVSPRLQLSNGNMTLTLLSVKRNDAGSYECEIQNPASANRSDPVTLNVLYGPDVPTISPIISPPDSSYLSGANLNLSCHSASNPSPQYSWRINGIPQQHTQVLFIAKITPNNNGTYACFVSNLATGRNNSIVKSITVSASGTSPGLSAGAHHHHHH
Procedure: For this experiment, anti-human IgG (Fc) antibody was immobilized on an activated CM5 biosensor chip (Cat. No. BR100839, GE Life Sciences). Anti-CEA antibodies were flowed over the chip surface and captured by anti-human Fab antibody. […] For flow cytometry, CEA-expressing cells (10′ cells/well) were incubated with various concentrations of purified affinity-matured antibodies, followed by binding with Alexa Fluro-647-labeled anti-hu IgG Fc antibody (Cat. No. 409320, BioLegend, USA). Cell fluorescence was quantified using a flow cytometer (Guava easyCyte™ 8HT, Merck-Millipore, USA). The equilibrium dissociation constant (KD) was calculated as the ratio koff/kₒₙ.

[2] = target: T1, chimeric construct (CHIM); assay: SPR; binding to CHIM
CHIM [3] = target: T2, CHIM (Homo sapiens, UniProt P06731, A174T/A211G/A239V/A261S/A267P/C12H/D173N/E253A/E283V/F203L/F272R/F277P/F63I/H123Q/H61N/H9C/I100T/I112V/I113T/I13V/I230T/I80V/INS244IISP/K155N/K214E/L18V/L245P/L62R/N182G/N204S/N246D/N288K/P266S/P287A/Q16K/Q78L/R139H/R17E/R198M/R224N/R250L/R77S/S228P/S280H/T171V/T206K/T210A/T217I/T247S/T276I/V221A/V273I/V291P/V55A/W11L); assay: SPR affinity comparison of affinity matured humanized BGA7592 variants on CHIM; type: binding
T2 construct: CEACAM6 N-terminal part (fusion partner); 6xHis (C); made in house; host or cells: HEK293-based mammalian cell expression system
T2 sequence (P06731 with tags, fused parts or gaps H9C/W11L/C12H/I13V/Q16K/R17E/L18V/V55A/H61N/L62R/F63I/R77S/Q78L/I80V/I100T/I112V/I113T/H123Q/R139H/K155N/T171V/D173N/A174T/N182G/R198M/F203L/N204S/T206K/T210A/A211G/K214E/T217I/V221A/R224N/S228P/I230T/A239V/INS244IISP/L245P/N246D/T247S/R250L/E253A/A261S/P266S/A267P/F272R/V273I/T276I/F277P/S280H/E283V/P287A/N288K/V291P): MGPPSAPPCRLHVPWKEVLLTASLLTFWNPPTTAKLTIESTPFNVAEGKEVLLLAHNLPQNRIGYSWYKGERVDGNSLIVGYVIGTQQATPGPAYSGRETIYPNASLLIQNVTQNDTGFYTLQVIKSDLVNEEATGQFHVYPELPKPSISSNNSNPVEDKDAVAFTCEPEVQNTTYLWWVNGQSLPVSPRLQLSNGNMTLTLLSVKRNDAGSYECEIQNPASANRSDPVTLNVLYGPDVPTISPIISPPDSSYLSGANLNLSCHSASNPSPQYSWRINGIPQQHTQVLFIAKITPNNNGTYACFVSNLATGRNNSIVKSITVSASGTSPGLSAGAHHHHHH

CHIM [4] = target: T2, CHIM; assay: as above; type: binding; settings: Table 9, SPR on CHIM
Procedure: (§1) Affinity comparison of BGA7592-1F (BGA5366) and other affinity matured clones was made by SPR assay (Table 9) using BIAcore™ T-200 (GE Life Sciences) and flow cytometry (FIG. 7). For this experiment, anti-human IgG (Fc) antibody was immobilized on an activated CM5 biosensor chip (Cat. No. BR100839, GE Life Sciences). Anti-CEA antibodies were flowed over the chip surface and captured by anti-human Fab antibody. Then a serial dilution (1.37 nM to 333 nM) of CHIM was flowed over the chip surface and changes in surface plasmon resonance signals were analyzed to calculate the association rates (kon) and dissociation rates (koff) by using the one-to-one Langmuir binding model (BIA Evaluation Software, GE Life Sciences). For flow cytometry, CEA-expressing cells (10′ cells/well) were incubated with various concentrations of purified affinity-matured antibodies, followed by binding with Alexa Fluro-647-labeled anti-hu IgG Fc antibody (Cat. No. 409320, BioLegend, USA). Cell fluorescence was quantified using a flow cytometer (Guava easyCyte™ 8HT, Merck-Millipore, USA). The equilibrium dissociation constant (KD) was calculated as the ratio koff/kon.

[5] = target: T3, huCEA surface protein (LOVO cells) (Homo sapiens, UniProt P06731); assay: Flow cytometry binding of affinity matured humanized BGA7592 variants to LOVO cells
T3 construct: host or cells: LOVO
T3 sequence (P06731 35-676): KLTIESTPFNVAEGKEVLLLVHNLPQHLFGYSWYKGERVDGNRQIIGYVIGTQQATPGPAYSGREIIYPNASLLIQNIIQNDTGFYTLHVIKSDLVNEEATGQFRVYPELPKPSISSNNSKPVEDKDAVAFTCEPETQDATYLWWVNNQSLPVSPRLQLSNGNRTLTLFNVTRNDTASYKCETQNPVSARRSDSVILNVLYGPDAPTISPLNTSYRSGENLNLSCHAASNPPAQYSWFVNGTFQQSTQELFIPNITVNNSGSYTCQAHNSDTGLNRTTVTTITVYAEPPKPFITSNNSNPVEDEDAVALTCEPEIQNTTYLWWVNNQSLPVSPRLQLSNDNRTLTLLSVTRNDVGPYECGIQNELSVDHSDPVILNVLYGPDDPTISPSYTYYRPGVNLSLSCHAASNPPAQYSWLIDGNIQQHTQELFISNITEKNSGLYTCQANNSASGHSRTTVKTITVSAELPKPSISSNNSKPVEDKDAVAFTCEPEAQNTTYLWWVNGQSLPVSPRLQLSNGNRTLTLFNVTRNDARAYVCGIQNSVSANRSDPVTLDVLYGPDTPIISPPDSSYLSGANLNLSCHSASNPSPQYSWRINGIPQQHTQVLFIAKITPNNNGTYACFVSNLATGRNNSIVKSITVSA
Procedure: as §1

Q: For `CC[C@@]1(O)C(=O)OCc2c1cc1n(c2=O)Cc2c-1nc1cc(F)c(C)c3c1c2[C@@H](NC(=O)C(C)(C)CO)CC3` [P3, N-((1S,9S)-9-ethyl-5-fluoro-9-hydroxy-4-methyl-10,13-dioxo-2,3,9,10,13,15-hexahydro-1H,12H-benz′[d′]pyrano[3′,4′:6,7]indolizino[1,2-b]quinolin-1-yl)-3-hydroxy-2,2-dimethylpropanamide], which EC50 (MKN45 cells; Homo sapiens, MKN-45, MKN45, 6 days, read-out: EC50) is on record?
A: The EC50 was 0.89 nM.

Q: And the Emax (MKN45 cells; Homo sapiens, MKN-45, MKN45, 6 days, read-out: Emax)?
A: Its Emax is 97%.

Q: Which results are given for `CC[C@@]1(O)C(=O)OCc2c1cc1n(c2=O)Cc2c-1nc1cc(F)c(C)c3c1c2[C@@H](NC(=O)CO)CC3` [P2, DXD]?
A: EC50 (MKN45 cells; Homo sapiens, MKN-45, […]): 2.08 nM; Emax (MKN45 cells; Homo sapiens, MKN-45, […]): 98.1%

Q: Which Emax (MKN45 cells; MKN45, 6 days) does the source give for `COc1cc2cc(c1Cl)N(C)C(=O)C[C@H](OC(=O)[C@H](C)N(C)C(=O)CCC(C)(C)S)[C@]1(C)O[C@H]1[C@H](C)[C@@H]1C[C@@](O)(NC(=O)O1)[C@H](OC)/C=C/C=C(\C)C2` [P1, DM4] here?
A: The Emax was 97.6.

Q: And the EC50 (MKN45 cells; MKN45, 6 days, read-out: EC50)?
A: The EC50 was 1.16 nM.

B1: BGA7592-1F (antibody, human IgG1, V domains shown)
VH: QVQLVQSGAEVKKPGASVKVSCKASGYIFTSYWLHWVRQAPGQGLEWIGYINPQTGYTSYAQKFQGRVTMTRDTSTSTVYMELSSLRSEDTAVYYCAREYGNYNYPLDYWGQGTLVTVSS
VL: DIQMTQSPSSLSASVGDRVTITCRASENIYGYLAWYQQKPGKVPKLLIYNAKNLVEGVPSRFSGSGSGTDFTLTISSLQPEDVATYYCQHHYGTPYTFGQGTKVEIK
notes: BGA7592-1 with N54Q, N59S, S61A in VH; human IgG1 wild type / kappa format; also called BGA5366
Q: Which results are given for B1?
A: Kd [1]: 790 nM; koff [1]: 0.0015 s⁻¹; kon [1]: 1900 M⁻¹ s⁻¹

B2: BGA7592-1F-ph-L (antibody, human IgG1, V domains shown)
VH: QVQLVQSGAEVKKPGASVKVSCKASGYIFTSYWLHWVRQAPGQGLEWIGYINPQTGYTSYAQKFQGRVTMTRDTSTSTVYMELSSLRSEDTAVYYCAREYGNYNYPLDYWGQGTLVTVSS
VL: DIQMTQSPSSLSASVGDRVTITCRASENQYGYLAWYQQKPGKVPKLLIYNFKNLVEGVPSRFSGSGSGTDFTLTISSLQPEDVATYYCQHHLGTPYTFGQGTKVEIK
notes: human IgG1/kappa; also called BGA3676
Q: For B2, which Kd [1] is on record?
A: The Kd was 46 nM.

Q: And the koff [1]?
A: The koff was 0.0003 s⁻¹.

Q: What about the kon [1] of the same molecule?
A: Its kon is 6700 M⁻¹ s⁻¹.

B3: BGA7592-1F-ph-M (antibody, human IgG1, V domains shown)
VH: QVQLVQSGAEVKKPGASVKVSCKASGYIFTSYWLHWVRQAPGQGLEWIGYINPQTGYTSYAQKFQGRVTMTRDTSTSTVYMELSSLRSEDTAVYYCAREYGNYNYPLDYWGQGTLVTVSS
VL: DIQMTQSPSSLSASVGDRVTITCRASENQYGYLAWYQQKPGKVPKLLIYNTKNLVEGVPSRFSGSGSGTDFTLTISSLQPEDVATYYCQHHLGTPYTFGQGTKVEIK
notes: human IgG1/kappa; also called BGA2433
Q: Which Kd [2] does the source give for B3 here?
A: Its Kd is 12.6 nM.

Q: What about the koff [2] of the same molecule?
A: Its koff is 0.000248 s⁻¹.

Q: And the kon [2]?
A: Its kon is 19700 M⁻¹ s⁻¹.

Q: What about the Kd [1] of the same molecule?
A: The Kd was 99 nM.

Q: What about the koff [1] of the same molecule?
A: The koff was 0.00025 s⁻¹.

Q: What about the kon [1] of the same molecule?
A: Its kon is 2500 M⁻¹ s⁻¹.

B4: BGA8179 (antibody, human IgG1, V domains shown)
VH: QVQLVQSGAEVKKPGASVKVSCKASGYIFTSYYLHWVRQAPGQGLEWIGYINPQTGYTSYAQKFQGRVTMTRDTSTSTVYMELSSLRSEDTAVYYCAREYGNYNYPLDYWGQGTLVTVSS
VL: DIQMTQSPSSLSASVGDRVTITCRASENQYGYLAWYQQKPGKVPKLLIYNTKNLVEGVPSRFSGSGSGTDFTLTISSLQPEDVATYYCQHHLGTPYTFGQGTKVEIK
notes: Built on the BGA7592-1F-ph-M (BGA2433) template; human IgG1/kappa
Q: What does the source list for B4?
A: Kd [2]: 14.2 nM; koff [2]: 0.000282 s⁻¹; kon [2]: 19900 M⁻¹ s⁻¹; binding activities compared to BGA7592-1F-ph-F (BGA9521) (CHIM [3]): improved binding activities; Ka (CHIM [3]; Table 11, SPR to CHIM): 19900 M⁻¹ s⁻¹; Rmax (CHIM [3]; Table 11, SPR to CHIM): 129.1 RU

B5: BGA7592-1F-ph-L (BGA3676): affinity matured clone of BGA7592-1F, "(SEQ ID NO:95)", "improved affinities to huCEA surface protein" (protein)
chain: DIQMTQSPSSLSASVGDRVTITCRASENQYGYLAWYQQKPGKVPKLLIYNFKNLVEGVPSRFSGSGSGTDFTLTISSLQPEDVATYYCQHHLGTPYTFGQGTKVEIK
modifications: Synthetic: BGA7592-1F-ph-L VL
Q: What does the source list for B5?
A: Ka (CHIM [4]): 6700 M⁻¹ s⁻¹; Rmax (CHIM [4]): 184 RU; affinities to huCEA surface protein [5]: improved affinities

B6: BGA7592-1F (BGA5366): "BGA7592-1F (also described herein as BGA5366)"; humanized anti-CEA antibody, parent of the affinity matured clones (antibody, V domains shown)
VH: QVQLVQSGAEVKKPGASVKVSCKASGYIFTSYWLHWVRQAPGQGLEWIGYINPQTGYTSYAQKFQGRVTMTRDTSTSTVYMELSSLRSEDTAVYYCAREYGNYNYPLDYWGQGTLVTVSS
VL: DIQMTQSPSSLSASVGDRVTITCRASENIYGYLAWYQQKPGKVPKLLIYNAKNLVEGVPSRFSGSGSGTDFTLTISSLQPEDVATYYCQHHYGTPYTFGQGTKVEIK
Q: For B6, which Ka (CHIM [4]) is on record?
A: Its Ka is 1900 M⁻¹ s⁻¹.

Q: And the Rmax (CHIM [4])?
A: Its Rmax is 367 RU.
